The target of assay [1] is T1, Cy5-labeled PCNA (human PCNA site-specifically labeled with Cy5 at amino acid residue 107) (human, UniProt P12004 1-261, Cy5 at amino acid residue 107). Put plainly: FRET or BRET; competitive inhibition: pre-assembled Cy3-Pol η•Cy5-PCNA complex (200 nM Cy3-Pol η, 20 nM Cy5-PCNA) titrated with unlabeled competitor (PCNA, (Ub)3-PCNA or pol η, 0-5 μM); dose-response model, Ki from IC50 by the Munson-Rodbard solution; room temperature; replication assay buffer, ionic strength 200 mM. The following applies: both partners purified. On the technique in general: Bioluminescence resonance energy transfer reports proximity on the nanometre scale.

Assay [2] addresses T1, Cy5-labeled PCNA (human PCNA …). Put plainly: FRET or BRET; holoenzyme assembly: RFC (100 nM), Cy5-PCNA (100 nM) and forked Cy3-P/T DNA (100 nM, biotin/Neutravidin) pre-incubated with 1 mM ATP, titrated with unlabeled pol η; FRET between DNA and PCNA (I670/I570); one-site binding model; room temperature; ionic strength 200 mM. The following applies: both partners purified.

What is called Ki is a measure of affinity in units of concentration, obtained from inhibition or displacement. Higher therefore signals a looser hold on the target.

T1 sequence (P12004 whole entry N107C): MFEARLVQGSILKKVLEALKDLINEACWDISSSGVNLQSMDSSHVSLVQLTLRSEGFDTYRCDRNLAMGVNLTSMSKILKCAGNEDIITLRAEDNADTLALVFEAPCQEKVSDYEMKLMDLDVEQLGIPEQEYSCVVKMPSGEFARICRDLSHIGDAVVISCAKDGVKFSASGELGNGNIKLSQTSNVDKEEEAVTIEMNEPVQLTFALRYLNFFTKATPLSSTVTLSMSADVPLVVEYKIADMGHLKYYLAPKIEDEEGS

B1: Pol η (human DNA polymerase eta, full length, wild type, unlabeled) (enzyme, UniProt Q9Y253 1-713, looked up)
chain: MATGQDRVVALVDMDCFFVQVEQRQNPHLRNKPCAVVQYKSWKGGGIIAVSYEARAFGVTRSMWADDAKKLCPDLLLAQVRESRGKANLTKYREASVEVMEIMSRFAVIERASIDEAYVDLTSAVQERLQKLQGQPISADLLPSTYIEGLPQGPTTAEETVQKEGMRKQGLFQWLDSLQIDNLTSPDLQLTVGAVIVEEMRAAIERETGFQCSAGISHNKVLAKLACGLNKPNRQTLVSHGSVPQLFSQMPIRKIRSLGGKLGASVIEILGIEYMGELTQFTESQLQSHFGEKNGSWLYAMCRGIEHDPVKPRQLPKTIGCSKNFPGKTALATREQVQWWLLQLAQELEERLTKDRNDNDRVATQLVVSIRVQGDKRLSSLRRCCALTRYDAHKMSHDAFTVIKNCNTSGIQTEWSPPLTMLFLCATKFSASAPSSSTDITSFLSSDPSSLPKVPVTSSEAKTQGSGPAVTATKKATTSLESFFQKAAERQKVKEASLSSLTAPTQAPMSNSPSKPSLPFQTSQSTGTEPFFKQKSLLLKQKQLNNSSVSSPQQNPWSNCKALPNSLPTEYPGCVPVCEGVSKLEESSKATPAEMDLAHNSQSMHASSASKSVLEVTQKATPNPSLLAAEDQVPCEKCGSLVPVWDMPEHMDYHFALELQKSFLQPHSSNPQVVSAVSHQGKRNPKSPLACTNKRPRPEGMQTLESFFKPLTH
notes: human DNA polymerase eta (pol η), single subunit; N-terminal catalytic core residues 1-475, C-terminal portion residues 476-713; also called unlabeled pol η; source: recombinant, purified from the pET21A-hPol η expression vector (modified protocol of Li et al., 2013)
Molecule B1 gave a Ki in assay [1] of 112 ± 15.5 nM. In assay [2], the “KD for Cy5-PCNA loaded on forked Cy3-P/T DNA (pol η holoenzyme formation)” value came out at 28 ± 5.38 nM.

The values are drawn from article PMC5123862, “Characterization of human translesion DNA synthesis across a UV-induced DNA lesion” (eLife, 2016).
